Legend:
Test in all cases: holdup assay
Parameters in all cases: key: below the threshold = too weak to quantify, mostly under pKd 3.1 to 4
Details in all cases: plain residues with an end cap or a label only (N-terminal biotin on a linker: ado-ado)
FRMPD4, Q14CM0 = molecular target: FRMPD4, Q14CM0
GORASP1, Q9BQQ3 = molecular target: GORASP1, Q9BQQ3
GIPC2, Q8TF65 = molecular target: GIPC2, Q8TF65
Inadl_6, Q8NI35 = molecular target: Inadl_6, Q8NI35
MAGI1_2, Q96QZ7 = molecular target: MAGI1_2, Q96QZ7
MAGI1_2, Q96QZ7, sequence (Q96QZ7 456-580): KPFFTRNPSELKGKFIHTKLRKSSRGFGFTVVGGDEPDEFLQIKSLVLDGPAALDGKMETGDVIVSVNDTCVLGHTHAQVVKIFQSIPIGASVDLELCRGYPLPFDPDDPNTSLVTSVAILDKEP

GRIP2_7, Q9C0E4 = molecular target: GRIP2_7, Q9C0E4
GRIP2_7, Q9C0E4, sequence (Q9C0E4 934-1023): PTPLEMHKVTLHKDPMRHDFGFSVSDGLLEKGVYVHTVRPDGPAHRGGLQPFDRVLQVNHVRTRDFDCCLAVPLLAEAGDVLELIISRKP

MAGI2_5, Q86UL8 = molecular target: MAGI2_5, Q86UL8
MAGI2_5, Q86UL8, sequence (Q86UL8 915-1017): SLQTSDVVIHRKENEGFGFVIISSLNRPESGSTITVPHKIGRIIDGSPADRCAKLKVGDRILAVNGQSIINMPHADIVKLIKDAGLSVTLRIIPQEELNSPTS

DLG4_3, P78352 = molecular target: DLG4_3, P78352
DLG4_3, P78352, sequence (P78352 306-403): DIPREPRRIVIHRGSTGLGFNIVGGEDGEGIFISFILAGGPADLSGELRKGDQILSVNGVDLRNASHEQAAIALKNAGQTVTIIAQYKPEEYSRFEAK

LNX1_3, Q8TBB1 = molecular target: LNX1_3, Q8TBB1
LNX1_3, Q8TBB1, sequence (Q8TBB1 500-596): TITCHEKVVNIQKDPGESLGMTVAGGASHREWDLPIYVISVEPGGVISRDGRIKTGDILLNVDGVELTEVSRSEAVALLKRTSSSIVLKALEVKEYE

GRIP1_3, Q9Y3R0 = molecular target: T1, GRIP1_3, Q9Y3R0
T1 sequence (Q9Y3R0 247-346, limits assumed, looked up): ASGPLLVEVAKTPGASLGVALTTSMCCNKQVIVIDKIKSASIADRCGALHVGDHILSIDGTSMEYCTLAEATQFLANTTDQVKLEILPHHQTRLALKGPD

APBA3_1, O96018 = molecular target: T2, APBA3_1, O96018
T2 sequence (O96018 389-490, limits assumed, looked up): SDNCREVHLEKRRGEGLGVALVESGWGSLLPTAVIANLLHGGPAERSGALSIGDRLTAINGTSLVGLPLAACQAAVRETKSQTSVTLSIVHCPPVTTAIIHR

PDZRN3_1, Q9UPQ7 = molecular target: T3, PDZRN3_1, Q9UPQ7
T3 sequence (Q9UPQ7 244-349, limits assumed, looked up): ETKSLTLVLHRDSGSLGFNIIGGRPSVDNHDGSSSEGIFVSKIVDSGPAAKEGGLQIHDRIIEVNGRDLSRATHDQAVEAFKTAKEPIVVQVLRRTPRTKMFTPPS

PICK1, Q9NRD5 = molecular target: PICK1, Q9NRD5
PICK1, Q9NRD5, sequence (Q9NRD5 17-115): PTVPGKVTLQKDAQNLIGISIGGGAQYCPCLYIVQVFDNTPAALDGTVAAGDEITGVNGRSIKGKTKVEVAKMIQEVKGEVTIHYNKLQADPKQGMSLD

Inadl_1, Q8NI35 = molecular target: Inadl_1, Q8NI35
Inadl_1, Q8NI35, sequence (Q8NI35 113-229): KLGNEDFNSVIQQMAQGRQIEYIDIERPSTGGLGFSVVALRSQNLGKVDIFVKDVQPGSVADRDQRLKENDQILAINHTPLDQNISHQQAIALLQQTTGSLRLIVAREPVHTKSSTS

GRIP2_4, Q9C0E4 = molecular target: GRIP2_4, Q9C0E4
GRIP2_4, Q9C0E4, sequence (Q9C0E4 446-548): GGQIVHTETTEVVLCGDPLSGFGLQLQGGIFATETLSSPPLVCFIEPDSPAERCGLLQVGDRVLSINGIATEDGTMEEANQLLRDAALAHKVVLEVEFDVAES

SNX27, Q96L92 = molecular target: SNX27, Q96L92
TX1BP3, O14907 = molecular target: T4, TX1BP3, O14907
T4 sequence (O14907 10-122, limits assumed, looked up): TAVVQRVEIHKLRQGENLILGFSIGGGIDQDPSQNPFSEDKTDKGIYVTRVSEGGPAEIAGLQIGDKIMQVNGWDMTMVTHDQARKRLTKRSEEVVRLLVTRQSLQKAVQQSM

GRIP1_5, Q9Y3R0 = molecular target: T5, GRIP1_5, Q9Y3R0
T5 sequence (Q9Y3R0 568-668, limits assumed, looked up): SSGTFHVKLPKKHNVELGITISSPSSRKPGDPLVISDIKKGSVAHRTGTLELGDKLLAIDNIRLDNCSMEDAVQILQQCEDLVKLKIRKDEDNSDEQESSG

LNX1_2, Q8TBB1 = molecular target: LNX1_2, Q8TBB1
LNX1_2, Q8TBB1, sequence (Q8TBB1 371-470): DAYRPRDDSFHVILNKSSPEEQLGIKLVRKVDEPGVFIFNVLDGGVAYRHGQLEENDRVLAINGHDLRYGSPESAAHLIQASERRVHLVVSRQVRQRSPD

RADIL, Q96JH8 = molecular target: T6, RADIL, Q96JH8
T6 sequence (Q96JH8 971-1071, limits assumed, looked up): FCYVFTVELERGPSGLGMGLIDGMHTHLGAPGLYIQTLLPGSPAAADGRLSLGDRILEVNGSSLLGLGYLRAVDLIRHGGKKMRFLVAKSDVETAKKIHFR

SNTB1, Q13884 = molecular target: T7, SNTB1, Q13884
T7 sequence (Q13884 107-205, limits assumed, looked up): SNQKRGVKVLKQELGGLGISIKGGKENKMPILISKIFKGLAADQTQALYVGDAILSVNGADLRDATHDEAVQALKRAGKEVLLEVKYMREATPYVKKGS

DLG5_1, Q8TDM6 = molecular target: DLG5_1, Q8TDM6
DLG5_1, Q8TDM6, sequence (Q8TDM6 617-713): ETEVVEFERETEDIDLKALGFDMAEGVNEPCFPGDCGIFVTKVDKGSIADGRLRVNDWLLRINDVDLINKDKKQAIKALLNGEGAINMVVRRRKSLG

MAGI2_6, Q86UL8 = molecular target: MAGI2_6, Q86UL8
MAGI2_6, Q86UL8, sequence (Q86UL8 1141-1229): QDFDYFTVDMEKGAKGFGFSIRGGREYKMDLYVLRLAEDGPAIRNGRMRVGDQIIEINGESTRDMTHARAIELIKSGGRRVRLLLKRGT

DFNB31_1, Q9P202 = molecular target: T8, DFNB31_1, Q9P202
T8 sequence (Q9P202 135-233, limits assumed, looked up): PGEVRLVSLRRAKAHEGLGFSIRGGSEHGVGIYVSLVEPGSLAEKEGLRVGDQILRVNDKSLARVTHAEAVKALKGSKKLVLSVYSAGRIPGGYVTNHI

SCRIB_3, Q14160 = molecular target: SCRIB_3, Q14160
SCRIB_3, Q14160, sequence (Q14160 999-1103): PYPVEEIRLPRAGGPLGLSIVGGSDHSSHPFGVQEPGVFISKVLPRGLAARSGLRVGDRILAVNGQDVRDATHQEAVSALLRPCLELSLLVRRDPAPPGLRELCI

MAGI1_1, Q96QZ7 = molecular target: MAGI1_1, Q96QZ7
MAGI1_1, Q96QZ7, sequence (Q96QZ7 1-106): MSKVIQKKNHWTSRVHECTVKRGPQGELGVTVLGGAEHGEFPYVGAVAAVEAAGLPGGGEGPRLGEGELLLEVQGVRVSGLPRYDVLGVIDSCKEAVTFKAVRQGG

PDZRN4_1, Q6ZMN7 = molecular target: PDZRN4_1, Q6ZMN7
PDZRN4_1, Q6ZMN7, sequence (Q6ZMN7 213-318): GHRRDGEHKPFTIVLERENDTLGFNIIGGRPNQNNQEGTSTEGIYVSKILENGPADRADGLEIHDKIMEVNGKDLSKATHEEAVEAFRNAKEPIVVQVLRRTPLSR

IL16_4, Q14005 = molecular target: IL16_4, Q14005
IL16_4, Q14005, sequence (Q14005 1229-1329): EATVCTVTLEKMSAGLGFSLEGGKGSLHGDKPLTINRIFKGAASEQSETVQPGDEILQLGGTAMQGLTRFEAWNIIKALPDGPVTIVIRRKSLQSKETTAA

LNX1_1, Q8TBB1 = molecular target: LNX1_1, Q8TBB1
LNX1_1, Q8TBB1, sequence (Q8TBB1 261-371): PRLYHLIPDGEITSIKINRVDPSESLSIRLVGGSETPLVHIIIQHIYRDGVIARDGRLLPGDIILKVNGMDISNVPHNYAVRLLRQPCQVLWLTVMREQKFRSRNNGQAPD

FRMPD4, Q14CM0, sequence (Q14CM0 67-160): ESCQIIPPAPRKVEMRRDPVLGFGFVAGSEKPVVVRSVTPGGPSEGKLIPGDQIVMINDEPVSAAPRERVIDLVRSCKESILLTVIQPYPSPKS
GIPC2, Q8TF65, sequence (Q8TF65 112-203): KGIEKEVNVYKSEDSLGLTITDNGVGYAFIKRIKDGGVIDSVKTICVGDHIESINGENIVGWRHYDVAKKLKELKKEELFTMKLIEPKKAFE
Inadl_6, Q8NI35, sequence (Q8NI35 1058-1167): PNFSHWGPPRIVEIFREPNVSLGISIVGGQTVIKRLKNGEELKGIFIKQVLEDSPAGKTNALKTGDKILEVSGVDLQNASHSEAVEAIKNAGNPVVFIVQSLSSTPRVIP
GORASP1, Q9BQQ3, sequence (Q9BQQ3 1-208): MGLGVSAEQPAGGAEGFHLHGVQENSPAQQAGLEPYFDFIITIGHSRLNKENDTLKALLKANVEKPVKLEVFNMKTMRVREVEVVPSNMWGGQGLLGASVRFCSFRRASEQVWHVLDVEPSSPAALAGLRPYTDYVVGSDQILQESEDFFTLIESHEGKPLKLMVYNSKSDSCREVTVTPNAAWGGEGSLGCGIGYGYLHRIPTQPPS

B1: NEB, P20929 (peptide)
chain: MLPANYVEAI
pKd (FRMPD4, Q14CM0): below the threshold
pKd (GORASP1, Q9BQQ3): 3.7
pKd (GIPC2, Q8TF65): below the threshold
pKd (Inadl_6, Q8NI35): below the threshold
pKd (MAGI1_2, Q96QZ7): below the threshold
pKd (GRIP2_7, Q9C0E4): below the threshold
pKd (MAGI2_5, Q86UL8): below the threshold
pKd (DLG4_3, P78352): below the threshold
pKd (LNX1_3, Q8TBB1): below the threshold
pKd (GRIP1_3, Q9Y3R0): below the threshold
pKd (APBA3_1, O96018): below the threshold
pKd (PDZRN3_1, Q9UPQ7): below the threshold
pKd (PICK1, Q9NRD5): 3.94
pKd (Inadl_1, Q8NI35): below the threshold
pKd (GRIP2_4, Q9C0E4): below the threshold
pKd (SNX27, Q96L92): below the threshold
pKd (TX1BP3, O14907): below the threshold
pKd (GRIP1_5, Q9Y3R0): below the threshold
pKd (LNX1_2, Q8TBB1): below the threshold
pKd (RADIL, Q96JH8): 3.65
pKd (SNTB1, Q13884): below the threshold
pKd (DLG5_1, Q8TDM6): below the threshold
pKd (MAGI2_6, Q86UL8): below the threshold
pKd (DFNB31_1, Q9P202): below the threshold
pKd (SCRIB_3, Q14160): below the threshold
pKd (MAGI1_1, Q96QZ7): below the threshold
pKd (PDZRN4_1, Q6ZMN7): below the threshold
pKd (IL16_4, Q14005): below the threshold
pKd (LNX1_1, Q8TBB1): below the threshold

B2: CACNA1D, Q01668 (peptide)
chain: ADEMICITTL
pKd (FRMPD4, Q14CM0): 3.97
pKd (GORASP1, Q9BQQ3): 4
pKd (GIPC2, Q8TF65): below the threshold
pKd (Inadl_6, Q8NI35): 4.62
pKd (MAGI1_2, Q96QZ7): below the threshold
pKd (GRIP2_7, Q9C0E4): 3.62
pKd (MAGI2_5, Q86UL8): 4.76
pKd (DLG4_3, P78352): below the threshold
pKd (LNX1_3, Q8TBB1): below the threshold
pKd (GRIP1_3, Q9Y3R0): below the threshold
pKd (APBA3_1, O96018): below the threshold
pKd (PDZRN3_1, Q9UPQ7): below the threshold
pKd (PICK1, Q9NRD5): 4.14
pKd (Inadl_1, Q8NI35): 4.33
pKd (GRIP2_4, Q9C0E4): below the threshold
pKd (SNX27, Q96L92): 5.51
pKd (TX1BP3, O14907): 3.87
pKd (GRIP1_5, Q9Y3R0): below the threshold
pKd (LNX1_2, Q8TBB1): below the threshold
pKd (RADIL, Q96JH8): 4.62
pKd (SNTB1, Q13884): 4.84
pKd (DLG5_1, Q8TDM6): below the threshold
pKd (MAGI2_6, Q86UL8): 4.85
pKd (DFNB31_1, Q9P202): 3.63
pKd (SCRIB_3, Q14160): 4.88
pKd (MAGI1_1, Q96QZ7): 3.51
pKd (PDZRN4_1, Q6ZMN7): 3.72
pKd (IL16_4, Q14005): below the threshold
pKd (LNX1_1, Q8TBB1): 4.48

B3: HDAC7, Q8WUI4 (peptide)
chain: LVEEEEPMNL
pKd (FRMPD4, Q14CM0): 3.86
pKd (GORASP1, Q9BQQ3): below the threshold
pKd (GIPC2, Q8TF65): below the threshold
pKd (Inadl_6, Q8NI35): below the threshold
pKd (MAGI1_2, Q96QZ7): below the threshold
pKd (GRIP2_7, Q9C0E4): below the threshold
pKd (MAGI2_5, Q86UL8): below the threshold
pKd (DLG4_3, P78352): below the threshold
pKd (LNX1_3, Q8TBB1): below the threshold
pKd (GRIP1_3, Q9Y3R0): below the threshold
pKd (APBA3_1, O96018): below the threshold
pKd (PDZRN3_1, Q9UPQ7): below the threshold
pKd (PICK1, Q9NRD5): 4.11
pKd (Inadl_1, Q8NI35): below the threshold
pKd (GRIP2_4, Q9C0E4): below the threshold
pKd (SNX27, Q96L92): below the threshold
pKd (TX1BP3, O14907): 4.01
pKd (GRIP1_5, Q9Y3R0): below the threshold
pKd (LNX1_2, Q8TBB1): below the threshold
pKd (RADIL, Q96JH8): below the threshold
pKd (SNTB1, Q13884): below the threshold
pKd (DLG5_1, Q8TDM6): below the threshold
pKd (MAGI2_6, Q86UL8): below the threshold
pKd (DFNB31_1, Q9P202): below the threshold
pKd (SCRIB_3, Q14160): below the threshold
pKd (MAGI1_1, Q96QZ7): below the threshold
pKd (PDZRN4_1, Q6ZMN7): below the threshold
pKd (IL16_4, Q14005): below the threshold
pKd (LNX1_1, Q8TBB1): below the threshold

B4: LRRC4, Q9HBW1 (peptide)
chain: TKDKVQETQI
pKd (FRMPD4, Q14CM0): 3.57
pKd (GORASP1, Q9BQQ3): below the threshold
pKd (GIPC2, Q8TF65): 3.68
pKd (Inadl_6, Q8NI35): 3.85
pKd (MAGI1_2, Q96QZ7): below the threshold
pKd (GRIP2_7, Q9C0E4): below the threshold
pKd (MAGI2_5, Q86UL8): 3.96
pKd (DLG4_3, P78352): 4.17
pKd (LNX1_3, Q8TBB1): below the threshold
pKd (GRIP1_3, Q9Y3R0): below the threshold
pKd (APBA3_1, O96018): below the threshold
pKd (PDZRN3_1, Q9UPQ7): 4.4
pKd (PICK1, Q9NRD5): below the threshold
pKd (Inadl_1, Q8NI35): below the threshold
pKd (GRIP2_4, Q9C0E4): below the threshold
pKd (SNX27, Q96L92): 5.5
pKd (TX1BP3, O14907): 4.28
pKd (GRIP1_5, Q9Y3R0): below the threshold
pKd (LNX1_2, Q8TBB1): below the threshold
pKd (RADIL, Q96JH8): below the threshold
pKd (SNTB1, Q13884): 5.08
pKd (DLG5_1, Q8TDM6): below the threshold
pKd (MAGI2_6, Q86UL8): 3.97
pKd (DFNB31_1, Q9P202): 5.43
pKd (SCRIB_3, Q14160): 5
pKd (MAGI1_1, Q96QZ7): 3.59
pKd (PDZRN4_1, Q6ZMN7): 4.6
pKd (IL16_4, Q14005): below the threshold
pKd (LNX1_1, Q8TBB1): 3.99

B5: FAM167B, Q9BTA0 (peptide)
chain: NISARRFTLC
pKd (FRMPD4, Q14CM0): below the threshold
pKd (GORASP1, Q9BQQ3): 3.9
pKd (GIPC2, Q8TF65): below the threshold
pKd (Inadl_6, Q8NI35): below the threshold
pKd (MAGI1_2, Q96QZ7): 5.12
pKd (GRIP2_7, Q9C0E4): 3.81
pKd (MAGI2_5, Q86UL8): 4.26
pKd (DLG4_3, P78352): 4.38
pKd (LNX1_3, Q8TBB1): below the threshold
pKd (GRIP1_3, Q9Y3R0): below the threshold
pKd (APBA3_1, O96018): below the threshold
pKd (PDZRN3_1, Q9UPQ7): below the threshold
pKd (PICK1, Q9NRD5): below the threshold
pKd (Inadl_1, Q8NI35): below the threshold
pKd (GRIP2_4, Q9C0E4): below the threshold
pKd (SNX27, Q96L92): below the threshold
pKd (TX1BP3, O14907): below the threshold
pKd (GRIP1_5, Q9Y3R0): below the threshold
pKd (LNX1_2, Q8TBB1): 4.62
pKd (RADIL, Q96JH8): 4.62
pKd (SNTB1, Q13884): 3.52
pKd (DLG5_1, Q8TDM6): below the threshold
pKd (MAGI2_6, Q86UL8): below the threshold
pKd (DFNB31_1, Q9P202): below the threshold
pKd (SCRIB_3, Q14160): below the threshold
pKd (MAGI1_1, Q96QZ7): 3.59
pKd (PDZRN4_1, Q6ZMN7): below the threshold
pKd (IL16_4, Q14005): below the threshold
pKd (LNX1_1, Q8TBB1): 3.85

Source: publication PMC9482650, “Quantitative fragmentomics allow affinity mapping of interactomes” (Nature Communications, 2022)
